Results reported in paper PMC11946523 (Toxins, 2025).

How the values were obtained:
[1] = target: recombinant C-terminal domain of the BoNT/A heavy chain (heavy chain receptor domain, HCR) (Clostridium botulinum serotype A, …, UniProt P0DPI1); assay: SPR; Biacore; […] (50 ug/mL) […], in HBS-EP ([…]; 120 s flow, 600 s dissociation; […]; conditions: both partners purified
[2] = target: Botulinum neurotoxin serotype A (BoNT/A) holotoxin (Clostridium botulinum serotype A, …, UniProt P0DPI1); assay: as above; conditions: both partners purified

B1: HZ45 humanized monoclonal antibody (antibody, V domains shown)
VH: EVQLVQSGAEVKKPGASVKVSCKASGYTFTDYYINWVRQATGQGLEWLGESYPGSGTAFYNEKFKGKATLTADKSKNTAYMELSSLRSEDTAVYFCARSDGSPFAYWGQGTLVTVSS
VL: DIQMTQSPSSLSASVGDRVTITCKASDYINNWLAWYQQKPGKAPKLLISGAISLETGVPSRFSGSGSGTDYTLTISSLQPEDFATYYCQQYWSPPLTFGQGTKVEIK
notes: also called HZ45 mAb; HZ45 antibody; source: CHO-K1, transfected, purified from culture medium (ammonium sulfate, HIC-Phenyl)
- Kd [1]: 0.0423 nM
- Kd [2]: 0.551 nM
